Test [1] concerns the target MUC16 (CA125), membrane-bound, on tumor cells (human) (UniProt Q8WXI7).
The target is the same in test [2]. In words: flow cytometry on MUC16-positive OVCAR3 cells, anti-FLAG detection. (In general: In flow cytometry, cells or beads pass a laser one at a time.)

This note sets out measurements from US20130302270A1.

In test [1], “soluble mesothelin (Meso), secreted FLAG-tagged form of human mesothelin (from UniProt Q13421) (ligand)” returned a reduction of Meso-TR3 killing of OVCAR3 cells by soluble mesothelin (% cell killing) of 40. This substance also came in with a percent of cells positive for the FLAG epitope tag in test [2] of 100%.
